Data published in US20100043097.

Key:
[1] = target: GST-BRK1
[2] = target: GST tagged BRK1-S230A

Sequence of GST-BRK1 (chain, as listed by the source): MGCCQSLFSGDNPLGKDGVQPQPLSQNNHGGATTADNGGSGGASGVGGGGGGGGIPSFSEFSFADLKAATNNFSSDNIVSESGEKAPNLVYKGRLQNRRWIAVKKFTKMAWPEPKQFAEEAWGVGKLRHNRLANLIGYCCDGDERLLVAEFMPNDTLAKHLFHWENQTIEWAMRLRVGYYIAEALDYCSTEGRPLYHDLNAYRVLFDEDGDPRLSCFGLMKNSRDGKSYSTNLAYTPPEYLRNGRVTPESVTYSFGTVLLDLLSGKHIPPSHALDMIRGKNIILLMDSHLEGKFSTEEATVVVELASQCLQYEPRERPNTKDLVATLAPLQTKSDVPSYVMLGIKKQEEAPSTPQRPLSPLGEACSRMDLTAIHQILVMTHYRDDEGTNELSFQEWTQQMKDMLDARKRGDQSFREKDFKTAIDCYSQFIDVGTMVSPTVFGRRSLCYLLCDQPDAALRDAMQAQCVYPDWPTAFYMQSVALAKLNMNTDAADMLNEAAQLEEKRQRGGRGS

B1: GST-BRI1-KD (protein)
chain: REMRKRRRKKEAELEMYAEGHGNSGDRTANNTNWKLTGVKEALSINLAAFEKPLRKLTFADLLQATNGFHNDSLIGSGGFGDVYKAILKDGSAVAIKKLIHVSGQGDREFMAEMETIGKIKHRNLVPLLGYCKVGDERLLVYEFMKYGSLEDVLHDPKKAGVKLNWSTRRKIAIGSARGLAFLHHNCSPHIIHRDMKSSNVLLDENLEARVSDFGMARLMSAMDTHLSVSTLAGTPGYVPPEYYQSFRCSTKGDVYSYGVVLLELLTGKRPTDSPDFGDNNLVGWVKQHAKLRISDVFDPELMKEDPALEIELLQHLKVAVACLDDRAWRRPTMVQVMAMFKEIQAGSGIDSQSTIRSIEDGGFSTIEMVDMSIKEVPEGKL
[1]
  mass spectrometry of BRI1-phosphorylated BRK1: identified serine 230 of BRK1 as a BRI1 phosphorylation site
[2]
  in vitro kinase assay (32P autoradiography), reduction of phosphorylation: a S230A mutation reduced the phosphorylation by 82%
